Measurements from US20060259987A1 (UNIVERSITY OF UTAH RESEARCH FOUNDATION, published 2006).

Columns and labels:
thrombin [1] = target: T1, thrombin (human, UniProt P00734 328-622); test: Kapp IIa/prog relative to plasma.at3
thrombin [2] = target: T1, thrombin; test: thrombin prog: pseudo-first-order loss of chromogenic activity, no heparin, 25 C
Protocol: (§1) Polybrene was added with the chromogenic substrate to quench the heparin dependent reaction. […] This was plotted against the heparin concentration to calculate the second-order rate constant for the inhibition by the heparin-ATIII complex, (Kₕₑₚ) from the equation Kobs=Kₕₑₚ[H]ₒ([AT]ₒ/[AT]ₒ+Kd)+Kuncat[AT]ₒ

factor Xa [3] = target: T2, factor Xa (human, UniProt P00742 41-179; P00742 235-488, limits assumed); test: Kapp fXa/prog relative to plasma.at3
T2 construct: also called fXa; human factor Xa
T2 sequence (P00742 41-179 limits assumed, chain 1 of 2): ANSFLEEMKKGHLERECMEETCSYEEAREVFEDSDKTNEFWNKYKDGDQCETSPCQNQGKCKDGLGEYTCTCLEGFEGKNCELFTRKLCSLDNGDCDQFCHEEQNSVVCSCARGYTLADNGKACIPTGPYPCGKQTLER
T2 sequence (P00742 235-488 limits assumed, chain 2 of 2): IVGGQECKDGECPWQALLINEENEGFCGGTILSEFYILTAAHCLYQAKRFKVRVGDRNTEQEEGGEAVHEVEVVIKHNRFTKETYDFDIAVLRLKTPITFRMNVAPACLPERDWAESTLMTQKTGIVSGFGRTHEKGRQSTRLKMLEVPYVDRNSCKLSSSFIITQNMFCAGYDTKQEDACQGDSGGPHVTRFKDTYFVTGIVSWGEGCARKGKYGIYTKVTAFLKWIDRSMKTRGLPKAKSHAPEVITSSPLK

thrombin [4] = target: T1, thrombin; test: Kapp IIa/hep relative to plasma.at3
factor Xa [5] = target: T2, factor Xa; test: cell-based or functional assay
thrombin [6] = target: T1, thrombin; test: cell-based or functional assay
factor Xa [7] = target: T2, factor Xa; test: factor Xa prog: pseudo-first-order loss of chromogenic activity, no heparin, 25 C
Protocol: as §1

factor Xa [8] = target: T2, factor Xa; test: Kapp fXa/hep relative to plasma.at3
human factor Xa [9] = target: T3, human factor Xa (human, UniProt P00742 41-179; P00742 235-488, limits assumed); test: residual enzyme activity against time, pseudo-first-order, with heparin
T3 construct: the active enzyme is a two-chain form of it; also called fXa
Protocol: Polybrene was added with the chromogenic substrate to quench the heparin dependent reaction. The observed pseudo-first-order rate constants were calculated for each heparin (1 nM-5 nM) concentration from the slope of the log of residual proteinase activity vs. time. This was plotted against the heparin concentration to calculate the second-order rate constant for the inhibition by the heparin-ATIII complex, (Kₕₑₚ) from the equation Kobs=Kₕₑₚ[H]ₒ([AT]ₒ/[AT]ₒ+Kd)+Kuncat[AT]ₒ

human factor Xa [10] = target: T3, human factor Xa; test: residual enzyme activity against time, pseudo-first-order, progressive (no heparin)
[11] = target: T4, human neutrophil elastase (human, UniProt P08246 30-247, limits assumed); test: cell-based or functional assay
T4 sequence (looked up): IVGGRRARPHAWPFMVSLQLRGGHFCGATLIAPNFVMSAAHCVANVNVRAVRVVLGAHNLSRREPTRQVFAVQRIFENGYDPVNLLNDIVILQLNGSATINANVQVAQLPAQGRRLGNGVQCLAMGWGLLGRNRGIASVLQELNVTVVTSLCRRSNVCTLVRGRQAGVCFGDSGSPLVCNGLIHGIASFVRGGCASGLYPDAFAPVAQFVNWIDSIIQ

human thrombin = human thrombin (human, UniProt P00734 328-622); test: residual enzyme activity against time, pseudo-first-order, progressive (no heparin)
factor Xa [12] = target: T5, factor Xa (human, UniProt P00742 41-179; P00742 235-488, limits assumed); test: heparin cofactor assay, HCA expt #4; ATIII titrated on 10 nM fXa + 50 ug/ml UFH, chromogenic readout
T5 construct: Active factor Xa has a light and a heavy chain; also called fXa
Protocol: (§2) After 3 minutes, the reactions were quenched with polybrene and chromogenic substrate S2238 (thrombin) or S2765 (fXa), and the initial rate of chromophore production (405 nm) recorded to obtain a measurement residual, uninhibited thrombin or factor Xa. IC50s were determined from plots of ATIII concentration vs. percent residual target enzyme activity.
T5 sequence (P00742 41-179 limits assumed, form in doubt, chain 1 of 2): as the sequence (P00742 41-179 limits assumed, chain 1 of 2) above
T5 sequence (P00742 235-488 limits assumed, form in doubt, chain 2 of 2): as the sequence (P00742 235-488 limits assumed, chain 2 of 2) above

thrombin [13] = target: thrombin (human, UniProt P00734 328-622); test: heparin cofactor assay, HCA expt #4; ATIII titrated on 10 nM thrombin + 50 ug/ml UFH, chromogenic readout
Protocol: as §2

T3 sequence (P00742 41-179 limits assumed, chain 1 of 2): as the sequence (P00742 41-179 limits assumed, chain 1 of 2) above
T3 sequence (P00742 235-488 limits assumed, chain 2 of 2): as the sequence (P00742 235-488 limits assumed, chain 2 of 2) above

B1: LEAI.472 (other)
chain: SPVDICTAKPRDIPMNPMCIYRSPEKKATEDEGSEQKIPEATNRRVWELSKANSRFATTFYQHLADSKNDNDNIFLSPLSISTAFAMTKLGACNDTLQQLMEVFKFDTISEKTSDQIHFFFAKLNCRLYRKANKASKLVSANRLFGDKSLTFNETYQDISELVYGAKLQPLDFKENAEQSRAAINKWVSNKTEGRITDVIPSEAINELTVLVLVNTIYFKGLWKSKFSPENTRKELFYKADGESCSASMMYQEGKFRYRRVAEGTQVLELPFKGDDITMVLILPKPEKSLAKVEKELTPEVLQEWLDELEEMMLVVHMPRFRIEDGFSLKEQLQDMGLVDLFSPEKSKLPGIVAEGRDDLYVSDAFHKAFLEVNEEGSEAAASTALEANGRSLNPNRVTFKANRPFLVFIREVPLNTIIFMGRVANPCVK
- Kapp as a percentage of the plasma ATIII value (thrombin [1]): 4%
- kapp (apparent second-order inhibition rate constant) (thrombin [2]): 278 M⁻¹ s⁻¹
- Kapp as a percentage of the plasma ATIII value (factor Xa [3]): 86%
- Kapp as a percentage of the plasma ATIII value (thrombin [4]): 3%
- IC50 fXa/UFH; HCA #3 (factor Xa [5]): 15 nM
- IC50 fXa/UFH; HCA #4 (factor Xa [5]): 38 nM
- rsd. Xa catG; CA #15; stg1 conc 200 (factor Xa [5]): 0%
- rsd. Xa hne; CA #15; stg1 conc 200 (factor Xa [5]): 1%
- rsd. Xa no add; CA #15; stg1 conc 200 (factor Xa [5]): 0%
- IC50 IIa/UFH; HCA #3 (thrombin [6]): 110 nM
- IC50 IIa/UFH; HCA #4 (thrombin [6]): 200 nM
- rsd. IIa catG; CA #15; stg1 conc 200 (thrombin [6]): 1%
- rsd. IIa hne; CA #15; stg1 conc 200 (thrombin [6]): 21%
- rsd. IIa no add; CA #15; stg1 conc 200 (thrombin [6]): 0%
- kapp (apparent second-order inhibition rate constant) (factor Xa [7]): 1800 M⁻¹ s⁻¹
- Kapp as a percentage of the plasma ATIII value (factor Xa [8]): 52%

B2: LEAI.472 (other)
chain: SPVDICTAKPRDIPMNPMCIYRSPEKKATEDEGSEQKIPEATNRRVWELSKANSRFATTFYQHLADSKNDNDNIFLSPLSISTAFAMTKLGACNDTLQQLMEVFKFDTISEKTSDQIHFFFAKLNCRLYRKANKASKLVSANRLFGDKSLTFNETYQDISELVYGAKLQPLDFKENAEQSRAAINKWVSNKTEGRITDVIPSEAINELTVLVLVNTIYFKGLWKSKFSPENTRKELFYKADGESCSASMMYQEGKFRYRRVAEGTQVLELPFKGDDITMVLILPKPEKSLAKVEKELTPEVLQEWLDELEEMMLVVHMPRFRIEDGFSLKEQLQDMGLVDLFSPEKSKLPGIVAEGRDDLYVSDAFHKAFLEVNEEGSEAAASTALEANGRSLNPNRVTFKANRPFLVFIREVPLNTIIFMGRVANPCVK
notes: Recombinant human ATIII variant made in Drosophila S2 cells on the S137A background
- kapp (apparent second-order inhibition rate constant) (human factor Xa [9]): 298000 M⁻¹ s⁻¹
- kapp (apparent second-order inhibition rate constant) (human factor Xa [10]): 1800 M⁻¹ s⁻¹
- halflife, min (HNE/hep) [11]: 30.1 min
- kapp (apparent second-order inhibition rate constant) (human thrombin): 278 M⁻¹ s⁻¹

B3: 13C (other)
chain: SPVDICTAKPRDIPMNPMCIYRSPEKKATEDEGSEQKIPEATNRRVWELSKANSRFATTFYQHLADSKNDNDNIFLSPLSISTAFAMTKLGACNDTLQQLMEVFKFDTISEKTSDQIHFFFAKLNCRLYRKANKASKLVSANRLFGDKSLTFNETYQDISELVYGAKLQPLDFKENAEQSRAAINKWVSNKTEGRITDVIPSEAINELTVLVLVNTIYFKGLWKSKFSPENTRKELFYKADGESCSASMMYQEGKFRYRRVAEGTQVLELPFKGDDITMVLILPKPEKSLAKVEKELTPEVLQEWLDELEEMMLVVHMPRFRIEDGFSLKEQLQDMGLVDLFSPEKSKLPGIVAEGRDDLYVSDAFHKAFLEVNEEGSEAAASTELEGAGRSLNPNRVTFKANRPFLVFIREVPLNTIIFMGRVANPCVK
notes: N-terminus printed as SPVDI---; text (ELEG) and primer codon GAG give E
- IC50 (factor Xa [12]): 33 nM
- IC50 (thrombin [13]): > 1000 nM

B4: 13C.438 (other)
chain: SPVDICTAKPRDIPMNPMCIYRSPEKKATEDEGSEQKIPEATNRRVWELSKANSRFATTFYQHLADSKNDNDNIFLSPLSISTAFAMTKLGACNDTLQQLMEVFKFDTISEKTSDQIHFFFAKLNCRLYRKANKASKLVSANRLFGDKSLTFNETYQDISELVYGAKLQPLDFKENAEQSRAAINKWVSNKTEGRITDVIPSEAINELTVLVLVNTIYFKGLWKSKFSPENTRKELFYKADGESCSASMMYQEGKFRYRRVAEGTQVLELPFKGDDITMVLILPKPEKSLAKVEKELTPEVLQEWLDELEEMMLVVHMPRFRIEDGFSLKEQLQDMGLVDLFSPEKSKLPGIVAEGRDDLYVSDAFHKAFLEVNEEGSEAAASTELENAGRSLNPNRVTFKANRPFLVFIREVPLNTIIFMGRVANPCVK
modifications: N-linked glycans added by Drosophila S2 cells; not carried by the letters
notes: Made in Drosophila S2 cells (DES) on the S137A background; N-terminus printed as SPVDI---
- IC50 (factor Xa [12]): 22 nM
- IC50 (thrombin [13]): > 1000 nM

B5: 7EVEA.458 (other)
chain: SPVDICTAKPRDIPMNPMCIYRSPEKKATEDEGSEQKIPEATNRRVWELSKANSRFATTFYQHLADSKNDNDNIFLSPLSISTAFAMTKLGACNDTLQQLMEVFKFDTISEKTSDQIHFFFAKLNCRLYRKANKASKLVSANRLFGDKSLTFNETYQDISELVYGAKLQPLDFKENAEQSRAAINKWVSNKTEGRITDVIPSEAINELTVLVLVNTIYFKGLWKSKFSPENTRKELFYKADGESCSASMMYQEGKFRYRRVAEGTQVLELPFKGDDITMVLILPKPEKSLAKVEKELTPEVLQEWLDELEEMMLVVHMPRFRIEDGFSLKEQLQDMGLVDLFSPEKSKLPGIVAEGRDDLYVSDAFHKAFLEVNEEGSEAAASTEVEAAPRSLNPNRVTFKANRPFLVFIREVPLNTIIFMGRVANPCVK
modifications: N-linked glycans added by Drosophila S2 cells; not carried by the letters
notes: as for B4
- IC50 (factor Xa [12]): 250 nM
- IC50 (thrombin [13]): > 1000 nM

B6: 7EVEA.459 (other)
chain: SPVDICTAKPRDIPMNPMCIYRSPEKKATEDEGSEQKIPEATNRRVWELSKANSRFATTFYQHLADSKNDNDNIFLSPLSISTAFAMTKLGACNDTLQQLMEVFKFDTISEKTSDQIHFFFAKLNCRLYRKANKASKLVSANRLFGDKSLTFNETYQDISELVYGAKLQPLDFKENAEQSRAAINKWVSNKTEGRITDVIPSEAINELTVLVLVNTIYFKGLWKSKFSPENTRKELFYKADGESCSASMMYQEGKFRYRRVAEGTQVLELPFKGDDITMVLILPKPEKSLAKVEKELTPEVLQEWLDELEEMMLVVHMPRFRIEDGFSLKEQLQDMGLVDLFSPEKSKLPGIVAEGRDDLYVSDAFHKAFLEVNEEGSEAAASTEVEIAPRSLNPNRVTFKANRPFLVFIREVPLNTIIFMGRVANPCVK
notes: as for B4
- IC50 (factor Xa [12]): 75 nM
- IC50 (thrombin [13]): > 1000 nM

B7: leai(bv) (other, human, UniProt P01008 33-464, looked up)
chain: HGSPVDICTAKPRDIPMNPMCIYRSPEKKATEDEGSEQKIPEATNRRVWELSKANSRFATTFYQHLADSKNDNDNIFLSPLSISTAFAMTKLGACNDTLQQLMEVFKFDTISEKTSDQIHFFFAKLNCRLYRKAAKSSKLVSANRLFGDKSLTFNETYQDISELVYGAKLQPLDFKENAEQSRAAINKWVSNKTEGRITDVIPSEAINELTVLVLVNTIYFKGLWKSKFSPENTRKELFYKADGESCSASMMYQEGKFRYRRVAEGTQVLELPFKGDDITMVLILPKPEKSLAKVEKELTPEVLQEWLDELEEMMLVVHMPRFRIEDGFSLKEQLQDMGLVDLFSPEKSKLPGIVAEGRDDLYVSDAFHKAFLEVNEEGSEAAASTALEAIGRSLNPNRVTFKANRPFLVFIREVPLNTIIFMGRVANPCVK
notes: mature; also called LEAI (parent)
- Kapp as a percentage of the plasma ATIII value (thrombin [1]): 75%
- kapp (apparent second-order inhibition rate constant) (thrombin [2]): 5280 M⁻¹ s⁻¹
- Kapp as a percentage of the plasma ATIII value (factor Xa [3]): 457%
- Kapp as a percentage of the plasma ATIII value (thrombin [4]): 159%
- kapp (apparent second-order inhibition rate constant) (factor Xa [7]): 9550 M⁻¹ s⁻¹
- Kapp as a percentage of the plasma ATIII value (factor Xa [8]): 192%
